± gives the standard deviation.
Experiment: protein stability index of a GFP-peptide fusion (GPS, HEK-293T) (PSI 1-6); higher = more stable
[1] = treatment: DMSO, c terminus: a fixed tail appended
[2] = treatment: MLN4924 1 uM, 8 h, c terminus: a fixed tail appended
[3] = treatment: DMSO, c terminus: native
[4] = treatment: MLN4924 1 uM, 8 h, c terminus: native
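Also: 24-mer peptide tiles fused after GFP, lentivirally expressed, FACS-sorted into six equal bins by GFP/DsRed ratio, decoded by Illumina sequencing, PSI is the read-weighted mean bin number.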

Sequence | protein stability index [1] | protein stability index [2] | protein stability index [3] | protein stability index [4]
VGSVSVDCGPSRADRCSPKEDQAW [FBXO34] | 3.66 ± 0.25 | 4.06 ± 0.33 | – | –
CKSGYHPTKSHSFRAMCQNGKLVY [CFHR2] | 2.16 ± 0.18 | 2.38 ± 0.43 | – | –
AQDLTEAEGWHFFCFQGEATRKLA [SAT2] | 2.94 ± 0.36 | 3.32 ± 0.46 | – | –
LRPTLLLTSLHHFMHSRNLYILGN [PNLIPRP1] | 3.08 ± 0.31 | 3.13 ± 0.81 | – | –
SFMTWLRSYIKLFQAPCQRCGKFL [MED27] | 2.6 ± 0.31 | 2.48 ± 0.18 | – | –
PVYRRDCHEEVYAGSHQYPGRGVY [ACBD3] | 2.89 ± 0.29 | 3.03 ± 0.2 | – | –
FAYLEDLHSEFDEQHGKKVPTVSR [SEC22B] | 3.64 ± 0.24 | 3.73 ± 0.33 | – | –
WPGASGSAQSLDRLGIMGAGLGA [ATP23] | – | – | 2.55 ± 0.26 | 2.43 ± 0.37
MELGPEPPHRRRLLFACSPPPASQ [CDC25A] | 3.57 ± 0.2 | 3.47 ± 0.17 | – | –
NLQELLELDSSSSLCVLVSTVGKL [CEP70] | 2.29 ± 0.49 | 2.43 ± 0.47 | – | –
PKAERLRWSPAQEESFRQMVVIHK [ZNF232] | 3.19 ± 0.31 | 3.25 ± 0.37 | – | –
NVLSDLYAMGITECDNMLMLLSVS [SEPHS2] | 2.93 ± 0.55 | 2.71 ± 0.42 | – | –
SHLQTNYSKTFQRSNVDFLETPEL [NECAB1] | 3.47 ± 0.23 | 3.62 ± 0.57 | – | –
MGREKCHQYWPAERSARYQYFVVD [PTPRD] | 2.3 ± 0.34 | 2.33 ± 0.14 | – | –
TNVESQLAEIRCDLERQNQEYQVL [KRT34] | 4.32 ± 0.21 | 4.27 ± 0.17 | – | –
LESPIDPQPLSFKEPPLLLGVLHP [APMAP] | 3.43 ± 0.31 | 3.69 ± 0.24 | – | –
KIIAVGVIDILPNCVSSVYLYYDP [ATE1] | 2.62 ± 0.42 | 3.19 ± 0.43 | – | –

Sequence | protein stability index [1] | protein stability index [2] | protein stability index [3] | protein stability index [4]
FSEPSFITESYQTLHPISSEELLS [ETS1] | 2.77 ± 0.4 | 3.28 ± 0.41 | – | –
YAHQMVRTDSREQKLDAFLQPLSK [MLH1] | 2.98 ± 0.3 | 3.35 ± 0.35 | – | –
RYVYRFVCDLQSLLGYTPEELHAM [ETS1] | 2.69 ± 0.65 | 2.5 ± 0.5 | – | –
RRLKYFFMSPCDKFRAKGRKPCKL [MCOLN1] | 2.38 ± 0.38 | 2.71 ± 0.16 | – | –
QVATSPDFDGKLKDIAGEFKEQLQ [ATL3] | 4.34 ± 0.35 | 4.32 ± 0.38 | – | –
RDVAAWGRARATGGDLEEQQHAEG [DNAAF3] | 5.43 ± 0.24 | 5.3 ± 0.086 | – | –
ACGLGGGYGGGFSSSSSFGSGFGG [KRT16] | 2.17 ± 0.27 | 2.29 ± 0.25 | – | –
LSRENIQSSLLETLYRNRSNLETI [PPEF2] | 2.83 ± 0.39 | 2.64 ± 0.33 | – | –
QAIFHAVDQYLALPDVSLGRYAYV [MCOLN1] | 3.16 ± 0.59 | 2.68 ± 0.31 | – | –
AVVKGIQSSGKVMYFSSLFPYVVL [SLC6A17] | 3.09 ± 0.49 | 2.51 ± 0.028 | – | –
SQMSPLSLYGENSNSLSSAEPLKE [ATF6] | 5.01 ± 0.3 | 5.03 ± 0.22 | – | –
KESNANPIFMRKDTKMSFQWRIRN [DPCD] | 2.83 ± 0.15 | 3.01 ± 0.24 | – | –
QLSTPHAVGVLLLGLVGYYIFRVA [DHCR7] | 2.91 ± 0.44 | 2.94 ± 0.35 | – | –
GHTPLMEAGSAGHVEVARLLLENG [ANKRD17] | 4.22 ± 0.24 | 4.17 ± 0.24 | – | –
RDRVGHKSIPMRNLRARPAKCLS [SERPINB5] | – | – | 2.34 ± 0.23 | 2.48 ± 0.24
NLISLLALRVLAEQNIIPSATNVT [TENT5C] | 2.94 ± 0.39 | 3.12 ± 0.36 | – | –
ETTSQQERLQAIAEKRKRQAEIEN [PALM] | 4.94 ± 0.14 | 5.06 ± 0.12 | – | –

From the supplement of paper PMC10567573
